Measurements from article PMC10786891, “Massively parallel profiling of RNA-targeting CRISPR-Cas13d”.
Residue numbers refer to the chain shown, from its start. In names and notes the source's numbering stands.

B1: target 1 insC 3' of 15,insC 3' of 3 (mixed)
RNA 1: CACCCGUGCAAAAAUGCAGGGGUCUAAAACUGAGCGGAUAACCUCUCUAUGG
RNA 2: GGGAAUGGAUCCACAUCUACGAAUUCGUACCAUAGAGCAGGUUAUCCGCUCCACCGAGAUCGGAAGAGCACACGU
B2: target 1 insU 3' of 2,insU 3' of 1 (mixed)
RNA 1: B1 RNA 1
RNA 2: GGGAAUGGAUCCACAUCUACGAAUUCGUACCAUAGAGAGGUUAUCCGCUCUAUCCGAGAUCGGAAGAGCACACGU
B3: target 1 insU 3' of 20,insC 3' of 9 (mixed)
RNA 1: B1 RNA 1
RNA 2: GGGAAUGGAUCCACAUCUACGAAUUCGUACCAUUAGAGAGGUUACUCCGCUCACCGAGAUCGGAAGAGCACACGU
B4: target 1 G13A,U19C (mixed)
RNA 1: B1 RNA 1
RNA 2: GGGAAUGGAUCCACAUCUACGAAUUCGUACCACAGAGAAGUUAUCCGCUCACCGAGAUCGGAAGAGCACACGU
B5: target 2 MT 5'PFS ACC 3'PFS UAG (mixed)
RNA 1: CACCCGUGCAAAAUUGCAGGGGUCUAAAACCUUCUCCAAAUUGUUUCAUCCU
RNA 2: GGGAAUGGAUCCACAUCUACGAAUUCACCAGGAUGAAACAAUUUGGAGAAGUAGAGAUCGGAAGAGCACACGU
B6: target 2 MT 5'PFS GUG 3'PFS ACA (mixed)
RNA 1: B5 RNA 1
RNA 2: B5 RNA 2 with A27G, C28U, C29G, U52A, A53C, G54A
B7: target 2 MT 5'PFS ACC 3'PFS UAC (mixed)
RNA 1: B5 RNA 1
RNA 2: B5 RNA 2 with G54C
B8: target 2 MT 5'PFS AGU 3'PFS ACU (mixed)
RNA 1: B5 RNA 1
RNA 2: B5 RNA 2 with C28G, C29U, U52A, A53C, G54U
B9: target 2 MT 5'PFS AGG 3'PFS UCC (mixed)
RNA 1: B5 RNA 1
RNA 2: B5 RNA 2 with C28G, C29G, A53C, G54C
B10: target 2 MT 5'PFS UAG 3'PFS CUC (mixed)
RNA 1: B5 RNA 1
RNA 2: B5 RNA 2 with A27U, C28A, C29G, U52C, A53U, G54C
B11: target 2 MT 5'PFS UAG 3'PFS CUA (mixed)
RNA 1: B5 RNA 1
RNA 2: B5 RNA 2 with A27U, C28A, C29G, U52C, A53U, G54A
B12: target 2 MT 5'PFS GGA 3'PFS CGA (mixed)
RNA 1: B5 RNA 1
RNA 2: B5 RNA 2 with A27G, C28G, C29A, U52C, A53G, G54A
B13: target 2 MT 5'PFS UAA 3'PFS UCA (mixed)
RNA 1: B5 RNA 1
RNA 2: B5 RNA 2 with A27U, C28A, C29A, A53C, G54A
B14: target 2 MT 5'PFS CGG 3'PFS CUA (mixed)
RNA 1: B5 RNA 1
RNA 2: B5 RNA 2 with A27C, C28G, C29G, U52C, A53U, G54A
B15: target 2 MT 5'PFS GGG 3'PFS CCG (mixed)
RNA 1: B5 RNA 1
RNA 2: B5 RNA 2 with A27G, C28G, C29G, U52C, A53C
B16: target 2 MT 5'PFS UAG 3'PFS CUU (mixed)
RNA 1: B5 RNA 1
RNA 2: B5 RNA 2 with A27U, C28A, C29G, U52C, A53U, G54U
B17: target 2 MT 5'PFS GGG 3'PFS CCA (mixed)
RNA 1: B5 RNA 1
RNA 2: B5 RNA 2 with A27G, C28G, C29G, U52C, A53C, G54A
B18: target 2 MT 5'PFS GGA 3'PFS CGC (mixed)
RNA 1: B5 RNA 1
RNA 2: B5 RNA 2 with A27G, C28G, C29A, U52C, A53G, G54C
B19: target 2 MT 5'PFS AAG 3'PFS UAC (mixed)
RNA 1: B5 RNA 1
RNA 2: B5 RNA 2 with C28A, C29G, G54C
B20: target 2 MT 5'PFS AGU 3'PFS ACG (mixed)
RNA 1: B5 RNA 1
RNA 2: B5 RNA 2 with C28G, C29U, U52A, A53C
B21: target 2 MT 5'PFS CGG 3'PFS CUU (mixed)
RNA 1: B5 RNA 1
RNA 2: B5 RNA 2 with A27C, C28G, C29G, U52C, A53U, G54U
B22: target 2 MT 5'PFS UAA 3'PFS UCC (mixed)
RNA 1: B5 RNA 1
RNA 2: B5 RNA 2 with A27U, C28A, C29A, A53C, G54C
B23: target 2 MT 5'PFS ACG 3'PFS UCU (mixed)
RNA 1: B5 RNA 1
RNA 2: B5 RNA 2 with C29G, A53C, G54U
B24: target 2 MT 5'PFS GGA 3'PFS CGG (mixed)
RNA 1: B5 RNA 1
RNA 2: B5 RNA 2 with A27G, C28G, C29A, U52C, A53G
B25: target 2 MT 5'PFS UAA 3'PFS UCG (mixed)
RNA 1: B5 RNA 1
RNA 2: B5 RNA 2 with A27U, C28A, C29A, A53C
B26: target 2 MT 5'PFS GCU 3'PFS AGC (mixed)
RNA 1: B5 RNA 1
RNA 2: B5 RNA 2 with A27G, C29U, U52A, A53G, G54C
B27: target 2 MT 5'PFS GUG 3'PFS ACC (mixed)
RNA 1: B5 RNA 1
RNA 2: B5 RNA 2 with A27G, C28U, C29G, U52A, A53C, G54C
B28: target 2 MT 5'PFS UGU 3'PFS CGA (mixed)
RNA 1: B5 RNA 1
RNA 2: B5 RNA 2 with A27U, C28G, C29U, U52C, A53G, G54A
B29: target 2 MT 5'PFS ACG 3'PFS UCC (mixed)
RNA 1: B5 RNA 1
RNA 2: B5 RNA 2 with C29G, A53C, G54C
B30: target 2 MT 5'PFS GAA 3'PFS UCA (mixed)
RNA 1: B5 RNA 1
RNA 2: B5 RNA 2 with A27G, C28A, C29A, A53C, G54A
B31: target 2 MT 5'PFS UAG 3'PFS CUG (mixed)
RNA 1: B5 RNA 1
RNA 2: B5 RNA 2 with A27U, C28A, C29G, U52C, A53U
B32: target 2 MT 5'PFS GGA 3'PFS CGU (mixed)
RNA 1: B5 RNA 1
RNA 2: B5 RNA 2 with A27G, C28G, C29A, U52C, A53G, G54U
B33: target 2 MT 5'PFS UAG 3'PFS UAU (mixed)
RNA 1: B5 RNA 1
RNA 2: B5 RNA 2 with A27U, C28A, C29G, G54U
B34: target 2 MT 5'PFS GGA 3'PFS UGA (mixed)
RNA 1: B5 RNA 1
RNA 2: B5 RNA 2 with A27G, C28G, C29A, A53G, G54A
B35: target 2 MT 5'PFS GGA 3'PFS UGU (mixed)
RNA 1: B5 RNA 1
RNA 2: B5 RNA 2 with A27G, C28G, C29A, A53G, G54U
B36: target 2 MT 5'PFS GUG 3'PFS ACG (mixed)
RNA 1: B5 RNA 1
RNA 2: B5 RNA 2 with A27G, C28U, C29G, U52A, A53C
B37: target 2 MT 5'PFS CGG 3'PFS CUC (mixed)
RNA 1: B5 RNA 1
RNA 2: B5 RNA 2 with A27C, C28G, C29G, U52C, A53U, G54C
B38: target 2 MT 5'PFS ACC 3'PFS UAU (mixed)
RNA 1: B5 RNA 1
RNA 2: B5 RNA 2 with G54U

Biological target: T1, EsCas13d, nuclease-dead (Eubacterium siraeum, UniProt B0MS50, R295A;H300A;R849A;H854A)
T1 sequence: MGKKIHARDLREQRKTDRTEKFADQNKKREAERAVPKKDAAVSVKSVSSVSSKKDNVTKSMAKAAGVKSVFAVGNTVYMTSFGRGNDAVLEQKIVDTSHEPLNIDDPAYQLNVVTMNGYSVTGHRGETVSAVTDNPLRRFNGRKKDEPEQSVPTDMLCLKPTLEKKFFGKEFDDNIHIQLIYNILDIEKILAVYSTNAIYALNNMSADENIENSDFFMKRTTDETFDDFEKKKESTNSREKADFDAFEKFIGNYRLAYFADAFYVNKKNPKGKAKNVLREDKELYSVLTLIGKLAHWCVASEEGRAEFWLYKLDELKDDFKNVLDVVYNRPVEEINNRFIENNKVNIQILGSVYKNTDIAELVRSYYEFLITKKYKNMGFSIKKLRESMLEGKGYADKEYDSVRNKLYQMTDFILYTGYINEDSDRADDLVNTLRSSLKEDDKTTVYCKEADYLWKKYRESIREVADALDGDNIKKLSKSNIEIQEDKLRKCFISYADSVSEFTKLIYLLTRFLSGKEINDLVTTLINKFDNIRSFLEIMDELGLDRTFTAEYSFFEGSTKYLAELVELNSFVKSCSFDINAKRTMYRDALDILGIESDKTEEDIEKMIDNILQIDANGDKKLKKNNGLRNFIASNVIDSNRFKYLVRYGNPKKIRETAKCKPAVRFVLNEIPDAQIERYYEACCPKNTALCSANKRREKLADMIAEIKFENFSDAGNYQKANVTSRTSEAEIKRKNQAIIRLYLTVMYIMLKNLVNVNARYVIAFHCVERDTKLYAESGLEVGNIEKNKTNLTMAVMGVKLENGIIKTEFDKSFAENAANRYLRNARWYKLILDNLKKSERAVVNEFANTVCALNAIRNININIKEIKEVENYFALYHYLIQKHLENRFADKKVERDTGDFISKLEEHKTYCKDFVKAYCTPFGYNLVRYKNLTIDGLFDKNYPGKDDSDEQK
Experiment: crRNA (strand 1, pre-loaded); Mg2+; 40 mM Tris-HCl pH 7.5, 150 mM NaCl, 6 mM MgCl2, 1 mM DTT, 0.1% Tween-20, 0.2 mg/ml BSA; 25 C; 10 min per concentration, then washed
Details: tags: His6-TwinStrep-SUMO cleaved; N-terminal SNAP kept (SNAP-Surface 488); label: 3' end held by stalled T7 RNA polymerase

Binder | Kd [nM]
B1 | 17.3 ± 0.9
B2 | 10.7 ± 0.6
B3 | 22.6 ± 1.1
B4 | 30 ± 6
B5 | 4.6 ± 0.8
B6 | 10.3 ± 0.9
B7 | 12 ± 5
B8 | 22 ± 7
B9 | 26 ± 4
B10 | 4.4 ± 0.4
B11 | 3.6 ± 0.5
B12 | 9.1 ± 0.9
B13 | 6.8 ± 1.7
B14 | 6.1 ± 0.8
B15 | 11.6 ± 0.9
B16 | 4.4 ± 0.5
B17 | 25 ± 5
B18 | 10.5 ± 1.2
B19 | 4.4 ± 0.5

Binder | Kd [nM]
B20 | 13.8 ± 1.7
B21 | 6.6 ± 0.9
B22 | 11.8 ± 1.4
B23 | 23 ± 7
B24 | 9.8 ± 0.8
B25 | 6.2 ± 1
B26 | 7.8 ± 1.4
B27 | 20.8 ± 2.1
B28 | 10.3 ± 1.7
B29 | 34 ± 15
B30 | 12.7 ± 3.2
B31 | 3.8 ± 0.5
B32 | 19.9 ± 3.1
B33 | 2.94 ± 0.19
B34 | 15.6 ± 3.1
B35 | 16.4 ± 1.6
B36 | 13.1 ± 0.8
B37 | 7.2 ± 0.9
B38 | 6.5 ± 1.4
